For this experiment, the target named is Strep-Tag II peptide WSHPQFEK (SEQ ID NO:9). The experiment can be described thus: ELISA assay after Friguet et al 1985. For orientation: In an ELISA, binding on a coated surface is turned into a signal by an enzyme label.

B1: monoclonal antibody C23.21 (antibody, V domains shown)
VH: EVQLEQSGPELVKPGASVKMSCKASGYTFTNYYMKWVKQSHGKSLEWIGDLNPNNGDTFYNQKFKGKATLTVDKSSNTAYMQLNSLTSEDSAVYYCARTGRYEENAMDYWGQGTSVTVSS
VL: ELVMTQSPASLAVSLGQRATISCRASESVDSYGKSFMHWYQLKPGQPPKLLIYRASNLESGVPARFSGSGSRTDFTLTIDPVEADDAATYYCQQNNEDPWTFGGGTKLEIK
For the molecule B1, the dissociation constant (Kd) (as a rule, the equilibrium constant for the complex coming apart) is 0.14 nM.

The values above are taken from patent publication EP2871189A1, “High-affinity monoclonal anti-strep-tag antibody” (INSTITUT PASTEUR, priority 2013, dated 2015).
